Measurements: a protein production outcome set (Wang et al. 2014)

Assay: label from the status in PepcDB records

Row | Sequence | protein production
1 | NENPDKPTDDVNYNMNEPRLASTLRGGLIIEGNVEQRLKPLQIDFYSQMTVDGGGWGTKNYIQDDEWNNLVWEEYLKQIASINIVIRSLTEKDKDAYANTIAFARIWRVYVHTLAADKFGPMPFPAYEIVEANPPYKSLKDIYDEYFRELDAAINGFNDSAQPIFSDAGIDLIYKNDVSKWKRFANSLRLRLAVRLTEVDQEKCIAEANAAISSPAGLISDKADNAYMPPKADGSWGQDYNYTMFQITWSGPICMSKSVEKLVTNIGGVAWPQGVVNQTSGVAVSSVHPEKVDPRAPKIFQPGIENGDWKGLVYGPKAEEANTGIYQSKQCAELGFIIKDGYPYKSRPYDLFLSEEVHFLKAELYARGFIAGDAKSEYEAGVRASFATWGVTSEVDDYLTSTEKNEAGTSARYDDQQGAGNTALEKIITQKYIAGIPDLAQEGWNDKRRLNLPRLDVAVYRDQAVYNNNDKDILKSANFIKRMRYPTKESLINATEYEKGKSMLGGKGDIVSTPLWWDKNSNYCTSSK | not failed
2 | MKIKRLYLLGAWLLLGVSVSAQITSIQPQPQQVLSQARNLSLPDTYLIVGDTEANTHAVSALKTLLAGKHSDKNGFRIYIGEKGDKAIRKFARQIPNHKEGYYLAINDKEIVLAGQDGRGTFYALQTLAQLLNDNQLPVVEIKDYPSVRFRGVVEGFYGTPWSHEARLRQLKFYGENKMNTYIYGPKDDPYHSSPNWRLPYPEKEALQLQELVKVANENEVDFVWAIHPGQDIKWNQEDRDLLLAKFEKMYDLGVRSFAVFFDDISGEGTNPNKQAELLNYIDEKFVKVKPDVTPLVMCPTEYNKSWSNPKGNYLTTLGEKLNPSIQIMWTGDRVISDITKDGIAWINARIKRPAYIWWNFPVSDYVRDHLLLGPVYGNDTQIADQMSGFVTNPMEHAEASKIAIYSVAGYAWNPEKYNSEQTWKDAIRTILPSAADELEFFAAHNSDLGPNGHKYRRDESVELQPLSQRFLDSYLKNGSYTEADFNALEATFGKMVESGDVLMTNTGNRPLIVEMMPWLRQFKLLGETGQEVLAMAKAYKEGDNSLFIRKYRHVKALQQQMFQVDQTYNQNPYQPGVKTATKVIKPLIDQTFTTVTERYNKEHGTQLDAATDYMPHKLVSDVEQLRNQPLQIKTNRVLVSPANEVIKWGAGCTLTIELDQAYPGENLDIDFGKPDVAAWGQLEISADGKEWQKVDFKQEKNRITLNLKQTPVKAVRFSNVGNAEQEVYLRRFMITLDK | failed
3 | MKIPSVFMLEQQKASLQLHVKQLANEAIQKSAPSAWFEVLYAEAQGDTTQIPWAKLTPHPYLQEWLTNHQPFPSGQKALVIGCGLGDDAEALAKLGFAVTAFDISPTAIAWCGQRFPNSNVNYIVADLLAIPPQWHLAFDFVFECRNIQALPLNIRAEVITSIASVVAPDGTLLLINRVRLEHHHHHH | failed
4 | MSSLLGTFLYTLETTLPVFAMVFIGIGLRRIGWIDQGFIATASALVFKATLPTLVFLSIIRADLDTTLSISMLIFYFLATLASFALVWFWATKRVRQEDRGVYVQGAFRGNCGIVGLALAANLYGDYGLSAGGLLLGLVIVVYNSLSVIVLLAYQPGKTMSLSNTLRDIARNPLIIGVVLAIPFAAFEITLPGWVMTSGDYFASLTLPLALLCIGATVSLKSIRSDSGPAMGSSIWKMVSLPALCTLVAWLAGFEGRELGLMFLFFASPTAAASFVMVKALGGNDRMAANIIALTTLLASVTVTTGVFVLQSIGVA | failed
5 | MEIVYVYVKKRSEFGKQCNFSDRQAELNIDISPNPELAALYVERNPVDTGIQCSASMSEHEANTERFEMENCGVNHVEGGWPKDVNPQELEQTIRFRKKVEKDENYINAVMQLGSIMEHCIKQNNAIDIYEEYFDDEEAVEVTEEAPSAKTINVFRDPQEIKRTATHLSWHPDGNKKLAVAYSCLQFQRSPMGMSHDSYIWDLENPNRPEIALKPSSPLITLEYNPKDSHVLLGGCYNGQIACWDTRKGSLVAELSTIEFSHRDPVYGTIWLQSKTGTECFSASTDGQVMWWDIRKISEPTEVVIMDITRKEQLENALGAISLEFESTLETPFQMGRGLGCILSRRPELKQQNEKLEGKPLTLPSHHRVPVRLGFYPCFPTNKRGLGDTCRSWLSPSSWAQGTKLRLSVLVANAVEPVTAWAAFTHMQSLHTQEHTVSTLGRFYFMYKQISKILTRTLTGASSVLKVCDDPLFCLRVQDTGCLIACGSELGTTTLLEVSSSLSTLQRNERNIASSIFERETRREKILEARHREMRLKEKGKAEGRDDDQKEEETALDLDELVNKAEEEFFEVIFAELKRKEAEALKKKPKPKKASIEVEGEDELEDIAGEEEESGIIMGEDTGEDDMDEKNEGGAP | failed
6 | MSIKYLYDRKKIAVTYGEEKYSYADIIKYVNYYSEFLDISKGDRVALMMENRPESIFSFFSIWAKKGIALSLDAGYTVEQLAFVLNDSKPKYIFVSNKIKEVVEKANEQVGNIVKIMVVDEITLPTDYVIKQEEYENDSNEDLAVIVYTSGTTGNPKGVMITYENIKTNMEGVRAVDLVTETDVILAMLPYHHIMPLCFTLILPMYMGVPIVLLTEISSASLLKALQENRVTVILGVPRVWEMLDKAIMTKINQSSLAKFMFKMASKINSMSIRKMLFSKVHKQFGGNIRLMVSGGAKIDKNILEDFRTMGFCAIQGYGMTETAPIITFNVPGRERSDSAGEVIPNVEVKIADDGEILVKGKNVMKGYYNNEQATKEAFDKDGWFHTGDLGKMDGKYLIIIGRKKEMIVLPNGKNIDPNDIEAEIIKNTDLIKEIAVTEYKEQLLAIIYPDFDQIKAKQIVNIKDAIKWEVIDKYNVTAPNYKKIHDIKIVKEELPKTRIGKIRRFMLKDLIEEKTENTDKKEAKKIIEVPAEMKEKFDIINKYMDERYQKAIDLDSHIELDLGFDSLDIVEFMNFLNSTFEITIVEQDFVENKTISAIIKLINDKAGKLVEKIDKNENLKKIIESDSNVKLPKDARYAKVLKFILSLMFRYYFKYKYRGKENLGEGAGIIVGNHQSYLDAFMLNNAFTYKELGGNYYIATALHFKSNFMKYLAGHGNIILVDANRNLKNTLQAAAKVLKSGKKLLIFPEGARTRDGQLQEFKKTFAILSKELNVPIYPFVLKGAYEAFPYNKKFPKRNNISVQFLEKIEPNDKTVEELVEETKNNIAKNYY | failed
7 | MKWRSRQLSFSSAKWYGDVIWIFDPGIIGAQIDNEGDLKKCFIQTLFHSTGSRQSIRIWWREIMLSLILRIYLDKFLPWISLSIKEVGESSVINFSLWGCLHGTRFRRWYSPFQKLSALAITKKDVISSSWRCFNGMRCN | failed
8 | MNSIQIADETYVAADAARVSAAVADRCSWRRWWPDLRLQVTEDRADKGIRWTVTGALTGTMEIWLEPSMDGVLLHYFLHAEPTGVAAWQLARMNLARMTHHRRVAGKKMAFEVKTVLERSRPIGVSPVT | failed
9 | MLVAAQQQGPPMPRPSHLMILALTAAALYIYALASDNTMLALMAKPIPVLALIAWLRSTPVSPYRTWISIGLGFSVLGDILLAIPADLFVFGLAAFLCAHLAYLRGYCGITLRPALPALIFSAITGIALLGVLASNGLGPLLIPVALYALAISAMLWRALACGGVAALGAGLFVFSDSLIGIDRFISPFAAAPYLIILAYWLGQWAIASSVGHRSTDKVLTQSGARRTESC | failed
10 | MTERSDYSIRIMSRQEIGMAVDWAAEEGWNPGLHDADCFHAADPEGFLTGLLGNEPVATISVVRYGTAFGFLGFYIVRPKYRGMGFGLKIWNAGLEQLKGRTIGLDGVVAQQENYAKSGFILAYRNIRVKGSGGGKIPAHEGIKPLVELPFETLLTYDSLFFPEERRTFLECWINQRESSSLGIIENNRLSGYGVIRTCRSGSKIGPLFADRADLAEELFCALKASAPEGSPLFLDIPEVNPEAVKLAQRHNMTVVFETSRMYQGNIPELPLGNIYGVTTFELG | failed
11 | MIYFIRKKKWLKQLEKGEAMKYAILIGDGMADYPIEKLGNRTILQAARTPAMDSIAARGRAGLAKTVPDSFPPGSDVANMSILGYDPATYYSGRAPLEAASMGVALAADDVAFRCNLITTEHGMIKDYSAGHISSDEAEILIDTLDYELSTENIRFYPGISYRHLIVAGNNLGAETECTPPHDITGEKIDKYLPRGKDGEFFSELIEASKVVLELHPVNLKRVEEGKNPANSIWVWGQGYAPKFTAFMKLYGKKGAVISAVDLLKGIGIYAGLDVIEVHGATGYLDTNYEGKVRAAIEALKTRDLVFVHVEAPDEAGHEGSIEKKLKAVEDFDSRIVAPILEYAENSDEPFTILVLPDHPTPISVKTHTRDPIPFAIYRTDKPETDNVEAFDEESVKNGSMGLVKASDLIGILIKS | failed
12 | ANMHIFENPSALAEALADDVGARLAAAIAARGTASLAVSGGSTPKAFFRSLSRRELDWSKVTVTLVDERFVPPENDRSNHRLVADNLLKDGAAEARFVPLYQAAETAEAAAAIASGRTASLGAPLDVVVLGMGTDGHTASFFPGGTRLEEALDPTTPRGVITMEAEGAGEPRLTFTFSSLQDAGYLVLHIEGSGKKEVLAQAEASGDEAEMPIRAMLRRAASPLQIYWAP | failed
13 | MAEKQKHDGRVKIGHYVLGDTLGVGTFGKVKIGEHQLTGHKVAVKILNRQKIRSLDVVGKIKREIQNLKLFRHPHIIKLYQVISTPTDFFMVMEYVSGGELFDYICKHGRVEEMEARRLFQQILSAVDYCHRHMVVHRDLKPENVLLDAHMNAKIADFGLSNMMSDGEFLRTSCGSPNYAAPEVISGRLYAGPEVDIWSCGVILYALLCGTLPFDDEHVPTLFKKIRGGVFYIPEYLNRSVATLLMHMLQVDPLKRATIKDIREHEWFKQDLPSYLFPEDPSYDANVIDDEAVKEVCEKFECTESEVMNSLYSGDPQDQLAVAYHLIIDNRRIMNQASEFYLASSPPSGSFMDDSAMHIPPGLKPHPERMPPLIADSPKARCPLDALNTTKPKSLAVKKAKWHLGIRSQSKPYDIMAEVYRAMKQLDFEWKVVNAYHLRVRRKNPVTGNYVKMSLQLYLVDNRSYLLDFKSIDDEVVEQRSGSSTPQRSCSAAGLHRPRSSFDSTTAESHSLSGSLTGSLTGSTLSSVSPRLGSHTMDFFEMCASLITTLAR | failed
14 | MNCKFEGSKVFFTSDTHFYHGNIIRFCNRPFKDVGMMNETIISNWNNTVGLDDIVFHLGDFCLGGSAEWTKILDRLNGKIYLILGNHDLKNLRQGYVDRFEHLAMQMHIEVNKQKIYLNHYPFLCFDGGYKDVWQLFGHVHTRNNNTGIDATRLQHLYPTQYDVGVDNNNFMPVSFAQVKTIIEKQIKQSKMEELEHHHHHH | not failed
15 | MTRIAIVGAGPAGLSLAYFLKGSRKVEATVYESMPEPGLKPCAWGLITGIENIIPIPNETIISEIRGFRIYLDNKLVFDIRTDNKLGYIIDKPLFLKRLSQEVNVEFNSKVVKKDDKYYINDKSLDHDKVIFATGHYSVSKSMSIPAIQYITDYEIDKEVVEFYFYSGFLGYAWVFPDREGSKIGIGGYAEVPELKERLKQILKGRIRTFHGARVTDYGVIEDRLDGNYTGEALGTVYAITGEGIRPSIISSKILADSILNRKDFKKEFKKSKLYWSLNWHAKIIKMTKENDPGTARLSKALLNNDPQLILKFAIGEFNRVDLIKIFGRSLILEHHHHHH | not failed
16 | MINIRSFRDLLRLFFIFKREVKITVLVTFIIIVLGAFLLPNRFESTALLLVKPGRDTSTLPIEIADRQAVVIPSAQRDPIIDEERILGGEPIARKVAEKYLDDLSRQPQPSGALATLKNAVKGAVEGIVDLLRGALQLVGLVEKQTPVERLTERMLKSFSVTHAAGSSVMEVSFTWNDPKVAQTVVKSWIEQYQQERAQTLGRKSLYAFYETESGATNQRILGYKKQIADYLNQLGAVSIEERLNDISRNLNNLKGEHLNTTRAVASTRSGLETIQKQLNSMKKEISIGRQMSLNPDRQDLQQRINAKQIERQEMLRTFKEGAPPVRAMDAAIANLQALLKSESGTVQRSENLAPNPVYTRLQNSFADQQASLSRLQTQAAQQETQLLKLEQERRQALAVEPELARLQRELSAAEKSFALYSDSTEKARIDRELDQSQISNIAVIEEATFKPSRVFPKSLSMLLAAIPLSLAVGLLALYFFYLLDQRIHDGDQIEERFGVKVWTSLQDLDSHLPQRNSAFTASLYRLYGILPLKQVALQGLVIGLTSARRGEGVSFVTAHLRDLLQERGHVVRVNGAPNAVPGEIVLLEASGFFSNQEAFVSLREADLIALIVEAETTTVPVLQNALSILTTAFKRVDGIIINRRRFGIPENVLNFLARIRSPH | failed
